Values belong to the binder of their own block, whether it stands above or below them.
What was measured:
[1] = target: mNPR1-mFc:hANP complex (mouse; human) (UniProt P01160); assay: SPR Biacore, mAb captured by anti-human Fc, 25C
[2] = target: mNPR1-mFc:hBNP complex (mouse; human) (UniProt P16860); assay: SPR Biacore, mAb captured by anti-human Fc, 25C
[3] = target: mNPR1-mFc:hANP complex (mouse; human) (UniProt P01160); assay: SPR Biacore, mAb captured by anti-human Fc, 37C
[4] = target: mNPR1-mFc:hBNP complex (mouse; human) (UniProt P16860); assay: SPR Biacore, mAb captured by anti-human Fc, 37C
[5] = target: mNPR1-mFc:hANP complex (mouse; human) (UniProt P01160); assay: SPR Biacore, mAb captured by anti-human Fc, 37C; kinetics IC* (inconclusive)
[6] = target: mNPR1-mFc:hBNP complex (mouse; human) (UniProt P16860); assay: as above
[7] = target: human NPR1 on HEK293/hNPR1.myc.DDK cells (0 hANP) (human) (UniProt P16066); assay: cell-based or functional assay
[8] = target: human NPR1 on HEK293/hNPR1.myc.DDK cells (no hANP added) (human) (UniProt P16066); assay: cell-based or functional assay
[9] = target: human NPR1 on HEK293/hNPR1.myc.DDK cells (0 hANP) (human) (UniProt P16066); assay: ECL cell binding (MSD), 0 hANP

Sequence of human NPR1 on HEK293/hNPR1.myc.DDK cells (0 hANP) (human) (P16066 33-1061): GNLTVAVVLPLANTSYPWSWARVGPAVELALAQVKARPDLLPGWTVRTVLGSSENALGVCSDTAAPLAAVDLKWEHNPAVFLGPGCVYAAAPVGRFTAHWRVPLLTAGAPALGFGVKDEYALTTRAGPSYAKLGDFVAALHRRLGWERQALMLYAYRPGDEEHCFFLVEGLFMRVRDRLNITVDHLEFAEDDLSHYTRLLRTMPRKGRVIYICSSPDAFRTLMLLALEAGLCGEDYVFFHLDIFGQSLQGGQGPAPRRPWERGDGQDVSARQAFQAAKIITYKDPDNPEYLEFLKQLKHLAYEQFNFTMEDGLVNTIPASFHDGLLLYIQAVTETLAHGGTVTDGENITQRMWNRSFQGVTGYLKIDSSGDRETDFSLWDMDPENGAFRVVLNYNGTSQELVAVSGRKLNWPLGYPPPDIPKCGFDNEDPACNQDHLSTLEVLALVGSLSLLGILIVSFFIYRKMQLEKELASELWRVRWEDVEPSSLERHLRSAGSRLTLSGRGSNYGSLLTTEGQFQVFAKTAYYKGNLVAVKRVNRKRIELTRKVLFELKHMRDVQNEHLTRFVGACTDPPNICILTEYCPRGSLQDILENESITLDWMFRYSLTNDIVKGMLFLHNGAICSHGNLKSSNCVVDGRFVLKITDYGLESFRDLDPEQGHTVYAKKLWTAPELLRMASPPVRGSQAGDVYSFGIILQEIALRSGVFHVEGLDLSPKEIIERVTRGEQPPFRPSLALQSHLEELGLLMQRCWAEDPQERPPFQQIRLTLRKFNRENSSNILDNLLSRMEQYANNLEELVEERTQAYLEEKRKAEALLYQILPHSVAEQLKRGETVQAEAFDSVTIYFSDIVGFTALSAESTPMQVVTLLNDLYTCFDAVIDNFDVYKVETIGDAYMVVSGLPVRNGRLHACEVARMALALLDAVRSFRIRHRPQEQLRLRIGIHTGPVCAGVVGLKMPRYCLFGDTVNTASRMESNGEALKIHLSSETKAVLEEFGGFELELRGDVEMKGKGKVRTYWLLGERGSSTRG
Sequence of human NPR1 on HEK293/hNPR1.myc.DDK cells (no hANP added) (human) (P16066 33-1061): as above

100 nM Ag Bound (RU) [1]: 1 RU | 100 nM Ag Bound (RU) [2]: 2 RU | 100 nM Ag Bound (RU) [3]: 1 RU | 100 nM Ag Bound (RU) [4]: 2 RU
B2: mAb25497 (antibody, human IgG4, V domains shown)
VH: QVQLVQSGAEVKEPGASVKVSCKASGYTFTDYYIHWVRQAPGQGLEWMGWINLNSGGKNHAQKFQGRVTVTSDTSINTAYIELGRLRGDDTAVYYCSRGGGSHYYYYYHGMDVWGQGTTVTVSS
VL: DIQMTQSPSSLSASVGDRITITCRASHSIDSYLNWYQQKPGKAPKLLIYPASTLQSGVPSRFSGSGSGTDFTLTISSLQPEDSAIYYCQQSYSTPLTFGGGTKVEIK

100 nM Ag Bound (RU) [1]: 0 RU | 100 nM Ag Bound (RU) [2]: 1 RU | 100 nM Ag Bound (RU) [3]: 0 RU | 100 nM Ag Bound (RU) [4]: 1 RU
B5: mAb25508 (antibody, human IgG4, V domains shown)
VH: EVQLVESGGGVVRPGGSLRLSCAASGFNVDDYGMSWVRQIPGKGLEWISGINWNGGRIYYADSMKGRITISRDNAKNSLYLQMNSLRAEDTALYHCVRDQWLVRGLDYWGQGTLVTVSS
VL: DIQMTQSPSSLSASVGDRVTITCRASQGIYNYLAWFQQKPGKAPKSLIYAASSLQSGVPSKFSGSGSGTDFTLTISSLQPEDFATYYCQQYNTYPYTFGQGTKLEIK

% Activation (vs ANP max), Expt 1 [7]: 92.9% | % Activation (vs. ANP max), Expt II [7]: 110% | EC50 (nM), calcium flux, Expt 1 [7]: 161 nM | EC50 (nM), calcium flux, Expt II [7]: > 200 nM | EC50 of Ca2+ flux activation, Expt II [8]: > 200 nM | Ratio at 3.7 nM Ab concentration of Cell Binding Signal (RLU) to HEK293/hNPR1.myc.DKK relative to parental HEK293 [9]: 1 | 100 nM Ag Bound (RU) [1]: 25 RU | Kd [1]: 337 nM | koff [1]: 0.0799 s⁻¹ | kon [1]: 237000 M⁻¹ s⁻¹ | t½ [1]: 8.4 s | 100 nM Ag Bound (RU) [2]: 25 RU | Kd [2]: 215 nM | koff [2]: 0.0503 s⁻¹ | kon [2]: 234000 M⁻¹ s⁻¹ | t½ [2]: 13.8 s | 100 nM Ag Bound (RU) [3]: 35 RU | Kd [3]: 334 nM | koff [3]: 0.0883 s⁻¹ | kon [3]: 264000 M⁻¹ s⁻¹ | t½ [3]: 7.8 s | 100 nM Ag Bound (RU) [4]: 34 RU | Kd [4]: 342 nM | koff [4]: 0.0998 s⁻¹ | kon [4]: 291000 M⁻¹ s⁻¹ | t½ [4]: 7.2 s
B6: mAb25502 (antibody, human IgG4, V domains shown)
VH: QLQLQESGPGLVKPSETLSLTCTVSGGSISSSSYYWGWIRQPPGKGLEWIGSIYYSGSPYYIPSLKSRVTISVDTSKNQFSLKLSSVTAADTAMYYCARQGRGIARAGPFDYWGQGTLVTVSS
VL: DIQMTQSPSSLSASVGDRVTITCRASQGISNYLAWYQEKPGKVPKLLIYAASTLQSGVPSRFSGSGSGTDFTLTITSLQSEDVATYYCQKYNSAPPWTFGQGTKVEIK

Continued, binder first:

B1: mAb22809 (antibody, human IgG4, V domains shown)
VH: QLQLRESGPGLVKPSETLSLTCTVSGGSINDNSFFWDWIRQTPGRGLEWIGNIFFDGNTYYTPSLKSRVIISVDMSQNQFSLRLTSVTAADTALYYCARHKRSMTAWGFFDYWGQGTLVTVSS
VL: DIQMTQSPSSLSASVGDRVTITCRASKRINTYLNWYQQKPGKAPKVLIYSASNLQSGVPSRFSGSGSGTDFTLTINSLQPEDFATYFCQQSFSAPPITFGQGTRLEIK
100 nM Ag Bound (RU) [1]: 0 RU | 100 nM Ag Bound (RU) [2]: 1 RU | 100 nM Ag Bound (RU) [3]: 1 RU | 100 nM Ag Bound (RU) [4]: 1 RU

B3: mAb22805 (antibody, human IgG4, V domains shown)
VH: QVQLVESGGGVVQPGRSLRLSCAASGFTFSTYGMHWVRQAPGKGLEWVALIWNDGSNKYYADSVKGRFTISRDNSKNTLDLQMNSLRAEDTAVYYCARLNTRITGTTNLDYWGQGTLVTVSS
VL: DIQMTQSPSSLSASVGDRVTVSCRASQSIANYLNWYQQKPGKAPNLLIYGAYTLQSGVPSRFRGSGSGTDFTLTISSLQPEDFATYYCQQTYSTPPITFGQGTRLEIK
100 nM Ag Bound (RU) [1]: 18 RU | Kd [1]: 424 nM | koff [1]: 0.0839 s⁻¹ | kon [1]: 198000 M⁻¹ s⁻¹ | t½ [1]: 8.4 s | 100 nM Ag Bound (RU) [2]: 21 RU | Kd [2]: 445 nM | koff [2]: 0.0682 s⁻¹ | kon [2]: 153000 M⁻¹ s⁻¹ | t½ [2]: 10.2 s | 100 nM Ag Bound (RU) [5]: 15 RU | 100 nM Ag Bound (RU) [6]: 17 RU

B4: mAb22035 (antibody, human IgG4, V domains shown)
VH: EVQLVESGGGLVQPGRSLRLSCAASGFTFDDYAMHWVRQAPGKGLEWVSGISWNSGTIGYADSVKGRFTMSRDNAKNSLYLQMNSLRPEDTALYYCAKDMGVSLALWGAFDIWGQGTMVTVSS
VL: DIQMTQSPSSLSASVGDKVTITCRASQNIRTYLNWYQQKPGKAPKVLISTASSLQSGVPSRFSGSGSGTDFTLTISSLQPEDFAVFYCQQSFGIPRTFGQGTKVEIK
100 nM Ag Bound (RU) [1]: 0 RU | 100 nM Ag Bound (RU) [2]: 0 RU | 100 nM Ag Bound (RU) [3]: 1 RU | 100 nM Ag Bound (RU) [4]: 1 RU

B7: mAb22033 (antibody, human IgG4, V domains shown)
VH: QVQLVQSGAEVKKPGASVTVSCKASGYTFTDYYMHWVRQAPGQGLEWMGWIKPNSGGTNSAQRFQGRITMTWDTSISTAYMELSRLRSDDTAVYYCSRGGPVMNYYYYYGMDVWGQGTTVTVSS
VL: NIQMTQSPSSLSASVGDRVTITCRASQSIDSYLNWYQQKPGKAPKLLIYVASSLQSGVPSRFSGSGSGKDFTLTISSLQPEDFATYYCQQSYSIPTFGQGTRLEIK
100 nM Ag Bound (RU) [1]: 1 RU | 100 nM Ag Bound (RU) [2]: 5 RU | 100 nM Ag Bound (RU) [3]: 2 RU | 100 nM Ag Bound (RU) [4]: 4 RU

B8: mAb25491 (antibody, human IgG4, V domains shown)
VH: QVQLVQSGAEVMKPGASVKVSCKASGYTFTGYYIHWVRQAPGQGLEWMGWITPNSGATNYAQKFQGRVTLTRDTSISTAYMELTRLKSDDTAVYYCARGGQLEFFYYYYGMDVWGQGTTVTVSS
VL: DIQMTQSPSSLSASAGDRVTITCRASQSIDSYLNWYQQKPGKAPKLLISATSGFQSGVPSRFSGSGSGTDFTLTISSLQPEDFGTYYCQQSYTTPITFGQGTRLEIK
100 nM Ag Bound (RU) [1]: 1 RU | 100 nM Ag Bound (RU) [2]: 5 RU | 100 nM Ag Bound (RU) [3]: 1 RU | 100 nM Ag Bound (RU) [4]: 4 RU

Source: patent publication US20240309103A1
